This test addresses monomeric photosystem II complex (His-tagged PsbE) (Nicotiana tabacum | Nicotiana tabacum (endogenous in leaves)) (UniProt P69384). As to the kind of experiment: native gel or EMSA; BN-PAGE (3-12 % gradient, 205 V, 5 h, 4 °C) of PSII purified by protocol A. On the technique in general: Mobility shift assays separate free from complexed probe on a gel.

Usually stoichiometry N stands for the number of molecules, sites or subunits per partner or assembly.

Regarding “monomeric photosystem II complex (His-tagged PsbE) (from UniProt P69384 1-83; P69556 1-344)”, the stoichiometry N was 2.

(Values after article PMC3825537.)
